Measurements: PMC10653093
pEC50: −log10 of the molar value.

Target: Recombinant human heterodimeric S100A8/A9 (human) (UniProt P05109)
Test: ELISA

Sequence of UniProt P05109 (P05109 whole entry, chain 1 of 2): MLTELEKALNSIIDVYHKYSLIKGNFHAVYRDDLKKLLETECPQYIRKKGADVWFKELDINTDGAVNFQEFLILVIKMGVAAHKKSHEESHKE
Sequence of UniProt P05109 (P06702 whole entry, chain 2 of 2, further chain): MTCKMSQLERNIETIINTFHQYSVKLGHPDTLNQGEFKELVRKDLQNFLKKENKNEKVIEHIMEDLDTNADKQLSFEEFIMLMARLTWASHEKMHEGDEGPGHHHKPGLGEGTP

pEC50: 6.89
Substance: recombinant soluble GPIbα (His-17-Leu505) (domain or fragment)
